According to patent publication US20210395344A1:
Positions count from the first letter of the chain named.

B1: 1-30 (antibody, V domains shown)
VH: EVQLLESGGGLVQPGGSLRLSCAASGFTFSSYAMTWVRQAPGKGLEWVSAISGSGGSTFYADSVKGRFTISRDNSKNTLYLQMNSLRAEDTAVYYCTRPPYGDYGDYWGQGTLVTVSS
VL: QSALTQPASVSGSPGQSITISCTGTSRDVGSYNLVSWYQQHPGKAPKLMIYEGTKRPSGVSNRFSGSKSGNTASLTISGLQAEDEADYYCCSYAGSRTPVVFGGGTKLTVL
B2: 1-28 (antibody, V domains shown)
VH: EVQLLESGGGLVQPGGSLRLSCAASGFTFSSYGMSWVRQAPGKGLEWVSAISGSGGGTYYADSVKGRFTISRDNSKNTLYLQMNSLRAEDTAVYYCASSSSWQFDYWGQGTLVTVSS
VL: B1 VL with R27S, D28G, T54S, K55Q, R97S, P99H, V100Y
B3: 1-32 (antibody, V domains shown)
VH: B1 VH with T35Y
VL: QSALTQPASVSGSPGQSITISCTGTSSDVGGYNLVSWYQQHPGKAPKLMIYEGNKRPSGVSNRFSGSKSGNTASLTISGLQAEDEADYYCCSYAGSSTFPVVFGGGTKLTVL
B4: 1-31 (antibody, V domains shown)
VH: B1 VH with T35N
VL: B1 VL with R27S, S31K, T54S, K55Q
B5: 1-3 (antibody, V domains shown)
VH: EVQLLESGGGLVQPGGSLRLSCAASGFTFSSQAMSWVRQAPGKGLEWVSAISGSGGGTYYADSVKGRFTISRDNSKNTLYLQMNSLRAEDTAVYYCAKDRRFGEFDPWGQGTLVTVSS
VL: B1 VL with T25I, R27S, R97S, T98S, P99F
B6: 1-4 (antibody, V domains shown)
VH: B5 VH
VL: B1 VL with R27S, S31T, T54S, K55Q, R97S, T98S, P99F

Molecular target: COVID S1 RBD Fc fusion (Antigen 1) (SARS-CoV-2), P0DTC2
Assay: phage ELISA
Conditions: remark: other sources report otherwise

Binder	ELISA fold over background (fold over background)
B1	1.7
B2	1.1
B3	1.5
B4	1.3
B5	1.8
B6	1.4

Molecular target: SARS-CoV-2 S protein trimer (SARS-CoV-2), P0DTC2
Assay: column DB/S-T (format not explained)
Conditions: remark: other sources report otherwise

Binder	Kd [nM]
B2	13.4
B5	423
B6	6.6

Molecular target: SARS-CoV-2 S protein trimer (SARS-CoV-2), P0DTC2
Assay: column DC/S-T (format not explained)
Conditions: remark: other sources report otherwise

Binder	Kd [nM]
B1	476000
B2	96.6
B5	5310
B6	129

Molecular target: SARS-CoV-2 S protein trimer (SARS-CoV-2), P0DTC2
Assay: column Fc/S-T (format not explained)
Conditions: remark: other sources report otherwise

Binder	Kd [nM]
B2	8.6
B5	10
B6	12.3

Molecular target: SARS-CoV-2 S protein trimer (SARS-CoV-2), P0DTC2
Assay: ELISA on coated S trimer; quantity not named
Conditions: remark: other sources report otherwise

Binder	S Trimer [nM]
B1	4.02
B4	0.8
